Measurements: the supplement of paper PMC9170038

Tested on: MS2 coat protein
Experiment: apparent KD of MS2 coat protein; designed switch direction (-1 OFF switch, 1 ON switch): 1; higher = weaker reporter binding
How it was run: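 The buffer was Tris-HCl pH 7.5 with KCl, MgCl2, BSA, DTT, tRNA and Tween-20. In it, SNAP-549-labelled MS2 coat protein was titrated in doubling steps from 0.7 or 1.5 nM to 3 µM over chip-bound RNA switches transcribed by stalled E. coli RNA polymerase on Illumina chips. Apparent KD is the per-design median over clusters of curve fits to normalised fluorescence.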

[1] = input ligand: microRNA oligo, concentration not stated

| Sequence | apparent KD of MS2 coat protein (input ligand: FMN 200 uM) [nM] | apparent KD of MS2 coat protein [1] [nM] | apparent KD of MS2 coat protein (input ligand: none) [nM] |
| --- | --- | --- | --- |
| GCUAGAAUAAAAGCCAACAUGAGGAUCACCCAUGUAUGUUGGCAGGAUAUCGUUUGCAAAGCAAACGAGAAGGGCCAUACUAGC [Mat - Same State NG 3 - JL Mod - D23] (Eterna round: R96, puzzle: Same State NG 3) | 45.1 | 109 | 117 |
| GCUAGAAUUAAAGCCAACAUGAGGAUCACCCAUGUAUGUUGGCAGGAUAUCGUUUGCUUUGCAAACGAGAAGGGCCAUACUAGC [JL SSNG3 1.08] (Eterna round: R96, puzzle: Same State NG 3) | 47.7 | 98.1 | 134 |
| GCUAGAAUUAACGCCUACAUGAGGAUCACCCAUGUAUGUAGGCAGGAUAUCGUUUGCAAAGCAAACGAGAAGGGCCUUACUAGC [Mat - Same State NG 3 - JL Mod - D31] (Eterna round: R96, puzzle: Same State NG 3) | 27.3 | 31 | 46.5 |
| GCUAGGAUAUGAAGAGGAUCACCCUUUAGAAGGAGCAUUAGCUAGGAUAUGAAGAGGAUCACCCUUUAGAAGGAGCACUACUCU [pwkr ssNG3 DX 2xF5 +2xFMN.7] (Eterna round: R96, puzzle: Same State NG 3) | 531 | 286 | 292 |
| GCUAGGAUAUGACGAGGAUCACCCGUUAGAAGGAGCUUCAGCUAGGAUAUGACGAGGAUCACCCGUUAGAAGGAGCACUACUCU [pwkr ssNG3 DX 2xF5 +2xFMN.8] (Eterna round: R96, puzzle: Same State NG 3) | 205 | 90.9 | 91.4 |
| GCUAGGAUUAAAGCCAACAUGAGGAUCACCCAUGUAUGUUGGUAGGAUAUCGUUUGCAAAGCAAACGAGAAGGGCUAACCUAGC [Mat - Same State NG 3 - JL Mod - D67] (Eterna round: R96, puzzle: Same State NG 3) | 88.3 | 73 | 92.6 |
| GCUAGUAUAAUUGUCAACAUGAGGAUCACCCAUGUAUGUUGGCAGGAUAUCGUUUGCAAAGCAAACGAGAAGGGCUAAACUAGC [Mat - Same State NG 3 - JL Mod - D11] (Eterna round: R96, puzzle: Same State NG 3) | 61.3 | 106 | 171 |
| GCUCGAAUCAGAACCAACAUGAGGAUCACCCAUGUAUGUUGGUAGGAUAUCGUUUCUAAGAGAAACGAGAAGGGCCGAACGAGC [SameState NG3 #5] (Eterna round: R96, puzzle: Same State NG 3) | 224 | 132 | 212 |
| GCUCGAAUCAGAACCAACAUGAGGAUCACCCAUGUGUGUUGGUAGGAUAUCGUUUCUAAGGGAAACGAGAAGGGCCGAACGAGC [SameState NG3 #7] (Eterna round: R96, puzzle: Same State NG 3) | 46.9 | 49.4 | 89.1 |
| GCUCGACGUAUUGUUUACAUGAGGAUCACCCAUGUAGGUGCGGAGGAUAUCUACGUGUUUCAUGUAGAGAAGGUCGUGUCGAGC [SameState NG3 #91] (Eterna round: R96, puzzle: Same State NG 3) | 24.5 | 59.2 | 106 |
| GCUCGACUGAUGGCCUACAUGAGGAUCACCCAUGUGACUGGGCAGGAUAUCUAGAUGCAGGAUGUAGAGAAGGGCCUGUCGAGC [SameState NG3 #43] (Eterna round: R96, puzzle: Same State NG 3) | 589 | 201 | 426 |
| GCUCGAUGAAUGUCCUACAUGAGGAUCACCCAUGUACGUGGGCAGGAUAUUUACAUGCAGAGUGUAGAGAAGGGCCCAUCGAGC [SameState NG3 #62] (Eterna round: R96, puzzle: Same State NG 3) | 16.1 | 28.6 | 49.1 |
